T1: GST-SPATIAL(L) (Mus musculus, UniProt Q7TSD4)
T1 construct: made in house
T1 sequence (Q7TSD4 with tags, fused parts or gaps isoform Q7TSD4-6 limits assumed): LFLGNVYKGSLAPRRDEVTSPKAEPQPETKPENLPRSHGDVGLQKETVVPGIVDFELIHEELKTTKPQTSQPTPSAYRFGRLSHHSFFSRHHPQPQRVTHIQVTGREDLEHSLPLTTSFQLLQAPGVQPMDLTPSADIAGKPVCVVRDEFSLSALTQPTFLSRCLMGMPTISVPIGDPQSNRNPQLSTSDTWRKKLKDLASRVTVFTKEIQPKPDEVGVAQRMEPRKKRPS

T2: Uba3/AppBP1 protein complex (Mus musculus, UniProt Q8C878)
T2 construct: Myc-tagged, full-length mouse Uba3; host or cells: cell-free: TNT Coupled Reticulocyte Lysate System, 35S-methionine labelled
T2 sequence (Q8C878 22-462 V120X/V142X/I148X/P243X limits assumed): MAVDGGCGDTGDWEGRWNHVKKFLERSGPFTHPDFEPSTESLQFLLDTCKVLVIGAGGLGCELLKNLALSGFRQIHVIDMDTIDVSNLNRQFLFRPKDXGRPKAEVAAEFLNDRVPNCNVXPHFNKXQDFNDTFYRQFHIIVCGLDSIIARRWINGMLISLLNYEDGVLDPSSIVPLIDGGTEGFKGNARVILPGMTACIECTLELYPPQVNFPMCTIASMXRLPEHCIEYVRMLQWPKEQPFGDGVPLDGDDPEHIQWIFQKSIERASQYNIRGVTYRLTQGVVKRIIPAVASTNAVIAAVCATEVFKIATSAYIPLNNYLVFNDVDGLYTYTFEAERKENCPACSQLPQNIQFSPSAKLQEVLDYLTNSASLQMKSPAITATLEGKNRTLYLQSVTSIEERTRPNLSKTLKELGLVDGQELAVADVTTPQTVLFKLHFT

B1: Uba3: catalytic subunit of NEDD8 activating enzyme, a 441-amino acid protein (SEQ ID NO: 6) (protein, listed as Mus musculus)
chain: T2 sequence (Q8C878 22-462 V120X/V142X/I148X/P243X limits assumed)
modifications: (99)..(99) The ′Xaa′ at location 99 stands for Val.; (121)..(121) The ′Xaa′ at location 121 stands for Val.; (127)..(127) The ′Xaa′ at location 127 stands for Ile.; (222)..(222) The ′Xaa′ at location 222 stands for Pro.
B2: GST-SPATIAL: glutathione-S-transferase SPATIAL fusion protein (protein)
chain: T1 sequence (Q7TSD4 with tags, fused parts or gaps isoform Q7TSD4-6 limits assumed)
modifications: left off: a dimerising Fc or GST
notes: glutathione-S-transferase SPATIAL fusion protein

Columns and labels:
GST-SPATIAL(L) = biological target: T1, GST-SPATIAL(L); assay: GST pulldown assay with GST-SPATIAL long isoform; format: binding; conditions: 35S-methionine labeled in vitro translated protein
Protocol: Eighteen cDNA clones identified in the yeast two-hybrid system were tested in an in vitro glutathione-S-transferase (GST) pulldown assay, as described in Ausubel et al., Current Protocols in Molecular Biology, Greene Publishing Associates, updated November 2003, Chapter 20, Analysis of Protein Interactions, Unit 20.2, Affinity Purification of Proteins Binding to GST Fusion Proteins.
Briefly, a GST-SPATIAL fusion construct was produced by cloning SPATIAL cDNA(s) into pGEx5X1 expression vector using standard molecular cloning techniques. GST or GST-SPATIAL fusion protein were expressed in 1-1000 ml bacterial cultures grown for 3-4 hours until OD600 reached 0.5. Then, plasmid expression was induced for 1.5-4 hours by the addition of ITPG to a final concentration of 0.11 mM. GST or GST-fusion proteins were purified using glutathione-Sepharose beads as described in Ausubel et al., Current Protocols in Molecular Biology, Greene Publishing Associates, updated November 2003, Chapter 20, Analysis of Protein Interactions, Unit 20.2, Affinity Purification of Proteins Binding to GST Fusion Proteins.
A coupled in vitro transcription and translation system (Promega) was used according to the manufacturer's instructions to produce radiolabeled protein from cDNAs to be tested. Radiolabeled proteins were mixed with either purified GST or GST-SPATIAL. Then, GST-containing protein complexes were purified by centrifugation from the reaction mixtures using glutathione-coated Sepharose beads. Bound proteins were eluted from the beads with SDS-PAGE loading buffer heated to 72-85° C., separated on polyacrylamide gels, and visualized by autoradiography. Specific interactions between GST-SPATIAL and in vitro translated proteins were indicated by the presence of a radiolabeled in vitro translated protein in the GST-SPATIAL-containing samples, but not in the GST-alone samples.
GST pulldown assays were performed as described in Example 9 using GST-SPATIAL(L) and GST-SPATIAL(S) and each of the Uba3 mutants described in this example.

293T cells = assay: Uba3 co-transfection with SPATIAL-EGFP, growth arrest; format: cell-based, human; conditions: transient over expression, 0.5, 2.5 or 4.5 μg/well Uba3 plasmid, FIG. 9
Protocol: To determine whether Uba3 is involved in SPATIAL mediated growth suppression, co-transfections were done using increasing amounts of an Uba3 expression vector with constant amounts of SPATIAL-EGFP or EGFP.
4×10^5 293T cells were transfected in 6 well plates using 5 μg of a mixture of plasmids. The plasmids used were pEGFP-N1 (0.5 μg/well), pEGFP-SPATIAL(L) (0.5 μg/well), pcDNA3.1 Myc/his M Uba3 (0.5, 2.5 or 4.5 μg/well) (pcDNA3.1 myc/His may be obtained from Invitrogen), and pWL-neo (4 or 2 μg/well). The plasmid pWL-neo (Stratagene) was used as a control plasmid to make sure that the total DNA in each transfection totaled 5 μg. Transfections were done using Lipofectamine 2000 using manufacturers instructions (Invitrogen).
Twenty four hours after transfection, the cells were trypsinized and re-plated onto 10 cm dishes and cultured for up to 6 days. The number of EGFP-positive cells were determine at 24, 36 and 144 hours after transfection by harvesting the cells, counting and FACS analysis to determine the percentage of EGFP-positive cells.

[1] = biological target: T2, Uba3/AppBP1 protein complex; assay: GST pulldown and immunoprecipitation, Uba3 and AppBP1 interaction; format: binding; conditions: FIG. 4
Protocol: To determine whether SPATIAL has an effect on the neddylation pathway, cDNAs for each of the components of the Nedd8 conjugation pathway were obtained from EST depositories (AppBP1, GenBank Accession No. BC00480; Uba3, GenBank Accession No. BC002002). These cDNAs were used to produce radiolabeled proteins by in vitro transcription and translation.
The effect of SPATIAL on the first step of the pathway, the interaction between Uba3 and AppBP1, was tested using a GST pulldown assay
In a typical GST pulldown assay, GST and GST-SPATIAL were prepared from transformed bacterial cultures as previously described (e.g., Ausubel et al., Current Protocols in Molecular Biology, Greene Publishing Associates, updated November 2003, Chapter 20, Analysis of Protein Interactions, Unit 20.2, Affinity Purification of Proteins Binding to GST Fusion Proteins). After purification, GST and GST-SPATIAL proteins were mixed with glutathione-sepharose beads and the mixtures were frozen in 200 μl aliquots. The amount of protein bound to the beads was quantitated using a colormetric assay (BCA assay; Pierce-Endogen).
Uba3 and AppBP1 were in vitro translated and ^35S-methionine labeled using 0.5 μg of the respective expression plasmids in a 50 μl reaction using TNT® Coupled Reticulocyte Lysate Systems (Promega) by following the manufacturer's instructions. […]

Molecule | interaction with GST-SPATIAL(L) (GST-SPATIAL(L)) | effect on growth inhibition of SPATIAL-EGFP transfected cells (293T cells) | effect on Uba3 binding to AppBP1 [1]
B1 | specifically bound | overcomes the growth inhibition | 
B2 |  |  | interferes with Uba3 binding to AppBP1

From patent US20070248589A1 (GOVERNMENT OF THE UNITED STATES OF AMERICA AS REPRESENTED …, published 2007)
